Key:
[1] = biological target: T1, hCMV glycoprotein B (gB; HEK293T transfectant) (hCMV, UniProt P06473 32-906); experiment: cell competition; competitor 7H3-biotin
T1 construct: whole, on cells; in the functional rows it stands for gB on virions or transduced cells of the strain or isolate named in the readout

[2] = biological target: T1, hCMV glycoprotein B (gB; HEK293T …); experiment: cell-based or functional assay
[3] = biological target: hCMV gB E381 deletion (virus selected with 7H3 in epithelial cells) (hCMV); experiment: cell-based or functional assay
[4] = biological target: hCMV gB E361K + D362N (virus selected with 7H3 in fibroblasts) (hCMV); experiment: cell-based or functional assay
[5] = biological target: T1, hCMV glycoprotein B (gB; HEK293T …); experiment: cell-based or functional assay; remark: listed apart in the source
[6] = biological target: T1, hCMV glycoprotein B (gB; HEK293T …); experiment: cell competition; competitor 10C6-biotin
[7] = biological target: T1, hCMV glycoprotein B (gB; HEK293T …); experiment: cell competition; competitor 5F1-biotin
[8] = biological target: T2, soluble gB ectodomain expressed in a mammalian cell line (hCMV, UniProt P06473 32-750); experiment: ELISA, soluble gB ectodomain; ELISA on soluble gB ectodomain (4I22 was measured by Biacore on the 5-member complex)
T2 construct: extracellular domain

[9] = biological target: T1, hCMV glycoprotein B (gB; HEK293T …); experiment: cell competition; competitor 2B11-biotin
[10] = biological target: T1, hCMV glycoprotein B (gB; HEK293T …); experiment: cell-based or functional assay; remark: listed apart in the source
[11] = biological target: T1, hCMV glycoprotein B (gB; HEK293T …); experiment: cell-based or functional assay; remark: listed apart in the source
[12] = biological target: T1, hCMV glycoprotein B (gB; HEK293T …); experiment: cell competition; competitor 6B4-biotin
[13] = biological target: T1, hCMV glycoprotein B (gB; HEK293T …); experiment: cell-based or functional assay; remark: listed apart in the source
[14] = biological target: T1, hCMV glycoprotein B (gB; HEK293T …); experiment: cell-based or functional assay; remark: listed apart in the source
[15] = biological target: T1, hCMV glycoprotein B (gB; HEK293T …); experiment: cell competition; competitor 4H9-biotin
[16] = biological target: T3, hCMV gH + gL + UL128 + UL130 + UL131A (5-member complex; HEK293T co-transfectant) (hCMV, UniProt P12824 24-743; P16832 31-278; P16837 1-171; P16772 1-214); experiment: cell competition; competitor 1F11-biotin
T3 construct: whole, on cells; in the functional rows it stands for the complex on virions or transduced cells of the strain or isolate named in the readout; also called gH/gL/UL128-131A complex; pentameric complex

[17] = biological target: T3, hCMV gH + gL + UL128 + UL130 + UL131A …; experiment: cell competition; competitor 8I21-biotin
[18] = biological target: T3, hCMV gH + gL + UL128 + UL130 + UL131A …; experiment: cell competition; competitor 5A2-biotin
[19] = biological target: T4, hCMV UL130 + UL131A (HEK293T co-transfectant) (hCMV, UniProt P16772 1-214); experiment: cell-based or functional assay
[20] = biological target: T3, hCMV gH + gL + UL128 + UL130 + UL131A …; experiment: cell-based or functional assay
[21] = biological target: hCMV UL130 Q191K (virus selected with 4I22) (hCMV); experiment: cell-based or functional assay
[22] = biological target: hCMV UL130 W179R (virus selected with 4I22) (hCMV); experiment: cell-based or functional assay
[23] = biological target: soluble 5-member complex (gH, gL, UL128, UL130, UL131A) (hCMV, UniProt P12824 24-716; P16832 31-278; P16837 28-171; P16772 26-214); experiment: Biacore SPR, soluble 5-member complex
[24] = biological target: T3, hCMV gH + gL + UL128 + UL130 + UL131A …; experiment: cell competition; competitor 4N10-biotin
[25] = biological target: T3, hCMV gH + gL + UL128 + UL130 + UL131A …; experiment: cell-based or functional assay; remark: listed apart in the source
[26] = biological target: T3, hCMV gH + gL + UL128 + UL130 + UL131A …; experiment: cell competition; competitor 8J16-biotin
[27] = biological target: T3, hCMV gH + gL + UL128 + UL130 + UL131A …; experiment: cell-based or functional assay; remark: listed apart in the source
[28] = biological target: T3, hCMV gH + gL + UL128 + UL130 + UL131A …; experiment: cell competition; competitor 4I22-biotin
[29] = biological target: T3, hCMV gH + gL + UL128 + UL130 + UL131A …; experiment: cell competition; competitor 2F4-biotin
[30] = biological target: T3, hCMV gH + gL + UL128 + UL130 + UL131A …; experiment: cell competition; competitor 10F7-biotin
[31] = biological target: T3, hCMV gH + gL + UL128 + UL130 + UL131A …; experiment: cell competition; competitor 2C12-biotin
[32] = biological target: T4, hCMV UL130 + UL131A (HEK293T …); experiment: cell-based or functional assay; remark: listed apart in the source

B1: 7H3 (antibody, V domains shown)
VH: QVQLVQSGAEVKNPGASVKVSCKASGYTFTDYYIHWVRQAPGQGLEWMGWFNPNSGGTNFVQNFQGRVTMTRDTSISTAYMELSRLRSDDTAMYYCAKDSAKTASAYYGLNFFYYGMDVWGQGTTVTVSS
VL: QSVLSQPPSASGTPGQRVTISCSGSSSNIGKNYVYWYQQVPGTAPKLLMFKNNQRPSGVPDRFSGSKSGTSASLAISGLRSEDEADYYCSAWDGSLSRPLFGGGTKVTVL
notes: fully human IgG1 with unaltered Fc; also called 7H3-biotin; LJP538
Inhibition of binding (%) [1]: 100%
90% neutralization VR1814, ARPE [2]: 0.6 µg/mL
90% neutralization VR1814, MRC-9 [2]: 3 µg/mL
fold decrease in susceptibility of escape virus [3]: 22 fold
fold increase in neutralization EC50 of escape virus [4]: > 41 fold
EC50 inhibition of cell-cell fusion [5]: 4.77 µg/mL
Inhibition of binding (%) [6]: 0%
Inhibition of binding (%) [7]: 0%
Kd [8]: 0.29 nM
Inhibition of binding (%) [9]: 0%
neutralization of ARPE infection, isolate TM-20749 [10]: 4.36 µg/mL
neutralization of ARPE infection, isolate TM-31354 [10]: 1.42 µg/mL
neutralization of ARPE infection, isolate TM-E5271 [10]: 0.17 µg/mL
neutralization of ARPE infection, isolate TM-E9361 [10]: 0.33 µg/mL
neutralization of ARPE infection, isolate TM-E14953 [10]: 1.09 µg/mL
neutralization of ARPE infection, isolate TM-E19664 [10]: 0.26 µg/mL
neutralization of ARPE infection, isolate TM-E20744 [10]: 1.37 µg/mL
neutralization of ARPE infection, isolate TM-E28175 [10]: 0.24 µg/mL
neutralization of ARPE infection, isolate TM-E28257 [10]: 1.16 µg/mL
EC90 neutralization HUVEC, isolate TM-20749 [11]: 1.18 µg/mL
EC90 neutralization HUVEC, isolate TM-31354 [11]: 2.2 µg/mL
EC90 neutralization HUVEC, isolate TM-E5271 [11]: 0.19 µg/mL
EC90 neutralization HUVEC, isolate TM-E9361 [11]: 0.29 µg/mL
EC90 neutralization HUVEC, isolate TM-E14953 [11]: 0.12 µg/mL
EC90 neutralization HUVEC, isolate TM-E19664 [11]: 0.31 µg/mL
EC90 neutralization HUVEC, isolate TM-E20744 [11]: 0.39 µg/mL
EC90 neutralization HUVEC, isolate TM-E28175 [11]: 0.28 µg/mL
EC90 neutralization HUVEC, isolate TM-E28257 [11]: 1.02 µg/mL
Inhibition of binding (%) [12]: 0%
50% neutralization VR1814, BM-MSC [13]: 2 µg/mL
50% neutralization VR1814, Mo-DC [13]: 0.06 µg/mL
50% neutralization VR1814, ARPE [14]: > 2 µg/mL
50% neutralization VR1814, MRC-9 [14]: ≤ 2 µg/mL
Inhibition of binding (%) [15]: 0%

B2: 4I22 (antibody, human IgG1, V domains shown)
VH: QVQLVESGGGVVQPGRSLRLSCVASGFTFSSYAMHWVRQAPGKGLEWVAVISYDGDNKFYADSVKGRFRISRDTSKNTLYLEMNSLRAADTAIYYCAREELVGLMPPYYNYGLDVWGQGTTVTVSS
VL: QSVLTQPPSVSAAPGQKVTISCSGSNSNIGNNYVSWYQQLPGRAPKLLIYDNDHRPSGIPDRFSGSKSGTSATLVITGLQTGDEADYYCETWDTSLSAAVVFGGGTKLTVL
notes: fully human IgG1 with unaltered Fc; also called 4I22-biotin; 4122
Inhibition of binding (%) [16]: 100%
Inhibition of binding (%) [17]: 0%
Inhibition of binding (%) [18]: 0%
90% neutralization VR1814, ARPE [19]: 0.0015 µg/mL
90% neutralization VR1814, MRC-9 [19]: > 10 µg/mL
EC50 inhibition of cell-cell fusion [20]: 0.076 µg/mL
fold decrease in susceptibility of escape virus [21]: > 50000 fold
fold decrease in susceptibility of escape virus [22]: > 50000 fold
Kd [23]: 0.31 nM
Inhibition of binding (%) [24]: 0%
neutralization of ARPE infection, isolate TM-20749 [25]: 0.01 µg/mL
neutralization of ARPE infection, isolate TM-31354 [25]: 0.028 µg/mL
neutralization of ARPE infection, isolate TM-E5271 [25]: 0.01 µg/mL
neutralization of ARPE infection, isolate TM-E9361 [25]: 0.002 µg/mL
neutralization of ARPE infection, isolate TM-E14953 [25]: 0.012 µg/mL
neutralization of ARPE infection, isolate TM-E19664 [25]: 0.016 µg/mL
neutralization of ARPE infection, isolate TM-E20744 [25]: 0.01 µg/mL
neutralization of ARPE infection, isolate TM-E28175 [25]: 0.006 µg/mL
neutralization of ARPE infection, isolate TM-E28257 [25]: 0.009 µg/mL
Inhibition of binding (%) [26]: 0%
EC90 neutralization HUVEC, isolate TM-20749 [27]: 0.011 µg/mL
EC90 neutralization HUVEC, isolate TM-31354 [27]: 0.012 µg/mL
EC90 neutralization HUVEC, isolate TM-E5271 [27]: 0.001 µg/mL
EC90 neutralization HUVEC, isolate TM-E9361 [27]: 0.016 µg/mL
EC90 neutralization HUVEC, isolate TM-E14953 [27]: 0.012 µg/mL
EC90 neutralization HUVEC, isolate TM-E19664 [27]: 0.013 µg/mL
EC90 neutralization HUVEC, isolate TM-E20744 [27]: 0.02 µg/mL
EC90 neutralization HUVEC, isolate TM-E28175 [27]: 0.009 µg/mL
EC90 neutralization HUVEC, isolate TM-E28257 [27]: 0.001 µg/mL
Inhibition of binding (%) [28]: 100%
Inhibition of binding (%) [29]: 100%
Inhibition of binding (%) [30]: 100%
Inhibition of binding (%) [31]: 0%
50% neutralization VR1814, ARPE [32]: < 0.01 µg/mL
50% neutralization VR1814, MRC-9 [32]: > 2 µg/mL

Reference: patent US20170296650A1 (Novartis, published 2017)
